Assays:
Assay in all cases: cell-based or functional assay
[1] = target: Env of HIV isolate 0077.v1.c16 (clade C) (HIV)
[2] = target: Env of HIV isolate 16845-2.22 (clade C) (HIV)
[3] = target: Env of HIV isolate 247-23 (clade D) (HIV)
[4] = target: Env of HIV isolate 3301.v1.c24 (clade AC) (HIV)
[5] = target: Env of HIV isolate 57128.vrc15 (clade D) (HIV)
[6] = target: Env of HIV isolate BB201.B42 (clade A) (HIV)
[7] = target: Env of HIV isolate BJOX010000.06.2 (clade AE) (HIV)
[8] = target: Env of HIV isolate BR07.DG (clade B) (HIV)
[9] = target: Env of HIV isolate BS208.B1 (clade A) (HIV)
[10] = target: Env of HIV isolate CE703010217.B6 (clade C) (HIV)
[11] = target: Env of HIV isolate CNE19 (clade BC) (HIV)
[12] = target: Env of HIV isolate CNE20 (clade BC) (HIV)
[13] = target: Env of HIV isolate CNE57 (clade B) (HIV)
[14] = target: Env of HIV isolate CNE7 (clade BC) (HIV)
[15] = target: Env of HIV isolate MB539.2B7 (clade A) (HIV)
[16] = target: Env of HIV isolate MW965.26 (clade C) (HIV)
[17] = target: Env of HIV isolate P1981.C5.3 (clade G) (HIV)
[18] = target: Env of HIV isolate PVO.04 (clade B) (HIV)
[19] = target: Env of HIV isolate QH209.14M.A2 (clade A) (HIV)
[20] = target: Env of HIV isolate R3265.c6 (clade AE) (HIV)
[21] = target: Env of HIV isolate REJO.67 (clade B) (HIV)
[22] = target: Env of HIV isolate RHPA.7 (clade B) (HIV)
[23] = target: Env of HIV isolate SO18.18 (clade C) (HIV)
[24] = target: Env of HIV isolate SS1196.01 (clade B) (HIV)
[25] = target: Env of HIV isolate T251-18 (clade AG) (HIV)
[26] = target: Env of HIV isolate TRJO.58 (clade B) (HIV)
[27] = target: Env of HIV isolate TZBD.02 (clade C) (HIV)
[28] = target: Env of HIV isolate WITO.33 (clade B) (HIV)
[29] = target: Env of HIV isolate ZM135.10a (clade C) (HIV)
[30] = target: Env of HIV isolate ZM197.7 (clade C) (HIV)
[31] = target: Env of HIV isolate ZM214.15 (clade C) (HIV)
Env of SIVmac251.30.SG3 = target: Env of SIVmac251.30.SG3
[32] = target: HIV Env of isolate 00836-2.5 (HIV)
[33] = target: HIV Env of isolate 16845-2.22 (HIV)
[34] = target: HIV Env of isolate 25710-2.43 (HIV)
[35] = target: HIV Env of isolate 26191-2.48 (HIV)
[36] = target: HIV Env of isolate 286.36 (HIV)
[37] = target: HIV Env of isolate 3016.v5.c45 (HIV)
[38] = target: HIV Env of isolate 96ZM651.02 (HIV)
[39] = target: HIV Env of isolate CAP244.D3 (HIV)
[40] = target: HIV Env of isolate CH181.12 (HIV)
[41] = target: HIV Env of isolate CNE53 (HIV)
[42] = target: HIV Env of isolate CNE7 (HIV)
[43] = target: HIV Env of isolate DU151.02 (HIV)
[44] = target: HIV Env of isolate P0402.c2.11 (HIV)
[45] = target: HIV Env of isolate TZA125.17 (HIV)
[46] = target: HIV Env of isolate X1193.c1 (HIV)
[47] = target: HIV Env of isolate ZM106.9 (HIV)
[48] = target: HIV Env of isolate ZM135.10a (HIV)
[49] = target: HIV Env of isolate ZM197.7 (HIV)

B1: ePGT121.18 (ePGT121.18.H1 VH and ePGT121.17.L1 VL) (antibody, V domains shown)
VH: QMQLQESGPGLVKPGETLSLTCSVSGASISSSYWSWLRETPGKGLEWIGYTHHSGDTNYAPSLKSRVHLGLHPSKNQVSLSLTSVTAADTAVYYCARTLHGRRIYGVVAFNEYYTYFYWPTWGKGTQVTVSS
VL: SDISVAPGETVRITCGGESIGSRAVQWYQHRPGQAPRLIIYNNQDRPPGIPERFSGSPDIDFGTTATLTISNVEAGDEATYYCHIWDSRRPTNWELGPGTTLTVL
- IC50, pseudovirus neutralization [1]: > 50000 ng/mL
- IC50, pseudovirus neutralization [2]: 36 ng/mL
- IC50, pseudovirus neutralization [3]: > 50000 ng/mL
- IC50, pseudovirus neutralization [4]: 3 ng/mL
- IC50, pseudovirus neutralization [5]: 4 ng/mL
- IC50, pseudovirus neutralization [6]: 2 ng/mL
- IC50, pseudovirus neutralization [7]: > 50000 ng/mL
- IC50, pseudovirus neutralization [8]: 5 ng/mL
- IC50, pseudovirus neutralization [9]: > 50000 ng/mL
- IC50, pseudovirus neutralization [10]: 2 ng/mL
- IC50, pseudovirus neutralization [11]: 1 ng/mL
- IC50, pseudovirus neutralization [12]: 1 ng/mL
- IC50, pseudovirus neutralization [13]: 2 ng/mL
- IC50, pseudovirus neutralization [14]: 3 ng/mL
- IC50, pseudovirus neutralization [15]: > 50000 ng/mL
- IC50, pseudovirus neutralization [16]: 3 ng/mL
- IC50, pseudovirus neutralization [17]: 1 ng/mL
- IC50, pseudovirus neutralization [18]: 3 ng/mL
- IC50, pseudovirus neutralization [19]: > 50000 ng/mL
- IC50, pseudovirus neutralization [20]: > 50000 ng/mL
- IC50, pseudovirus neutralization [21]: 731 ng/mL
- IC50, pseudovirus neutralization [22]: 2 ng/mL
- IC50, pseudovirus neutralization [23]: 3 ng/mL
- IC50, pseudovirus neutralization [24]: 2 ng/mL
- IC50, pseudovirus neutralization [25]: 19 ng/mL
- IC50, pseudovirus neutralization [26]: 3 ng/mL
- IC50, pseudovirus neutralization [27]: 2 ng/mL
- IC50, pseudovirus neutralization [28]: 4 ng/mL
- IC50, pseudovirus neutralization [29]: 26 ng/mL
- IC50, pseudovirus neutralization [30]: > 50000 ng/mL
- IC50, pseudovirus neutralization [31]: 18 ng/mL
- IC80, pseudovirus neutralization (M1) (Env of SIVmac251.30.SG3): > 50000 ng/mL
- IC80, pseudovirus neutralization (M2) (Env of SIVmac251.30.SG3): > 50000 ng/mL
- IC80, pseudovirus neutralization (M1) [32]: > 50000 ng/mL
- IC80, pseudovirus neutralization (M2) [32]: > 50000 ng/mL
- IC80, pseudovirus neutralization (M1) [33]: 127 ng/mL
- IC80, pseudovirus neutralization (M2) [33]: 105 ng/mL
- IC80, pseudovirus neutralization (M1) [34]: 10 ng/mL
- IC80, pseudovirus neutralization (M2) [34]: 13 ng/mL
- IC80, pseudovirus neutralization (M1) [35]: 8 ng/mL
- IC80, pseudovirus neutralization (M2) [35]: 13 ng/mL
- IC80, pseudovirus neutralization (M1) [36]: 3 ng/mL
- IC80, pseudovirus neutralization (M2) [36]: 4 ng/mL
- IC80, pseudovirus neutralization (M1) [37]: > 50000 ng/mL
- IC80, pseudovirus neutralization (M2) [37]: > 50000 ng/mL
- IC80, pseudovirus neutralization (M1) [38]: 2 ng/mL
- IC80, pseudovirus neutralization (M2) [38]: 3 ng/mL
- IC80, pseudovirus neutralization (M1) [39]: > 50000 ng/mL
- IC80, pseudovirus neutralization (M2) [39]: > 50000 ng/mL
- IC80, pseudovirus neutralization (M1) [40]: 3 ng/mL
- IC80, pseudovirus neutralization (M2) [40]: 4 ng/mL
- IC80, pseudovirus neutralization (M1) [41]: 6 ng/mL
- IC80, pseudovirus neutralization (M2) [41]: 9 ng/mL
- IC80, pseudovirus neutralization (M1) [42]: 8 ng/mL
- IC80, pseudovirus neutralization (M2) [42]: 7 ng/mL
- IC80, pseudovirus neutralization (M1) [43]: 3 ng/mL
- IC80, pseudovirus neutralization (M2) [43]: 3 ng/mL
- IC80, pseudovirus neutralization (M1) [44]: 4 ng/mL
- IC80, pseudovirus neutralization (M2) [44]: 5 ng/mL
- IC80, pseudovirus neutralization (M1) [45]: 137 ng/mL
- IC80, pseudovirus neutralization (M2) [45]: 186 ng/mL
- IC80, pseudovirus neutralization (M1) [46]: 4 ng/mL
- IC80, pseudovirus neutralization (M2) [46]: 5 ng/mL
- IC80, pseudovirus neutralization (M1) [47]: 3 ng/mL
- IC80, pseudovirus neutralization (M2) [47]: 4 ng/mL
- IC80, pseudovirus neutralization (M1) [48]: 140 ng/mL
- IC80, pseudovirus neutralization (M2) [48]: 188 ng/mL
- IC80, pseudovirus neutralization (M1) [49]: > 50000 ng/mL
- IC80, pseudovirus neutralization (M2) [49]: > 50000 ng/mL

B2: ePGT121.18.17 (ePGT121.18.H17 VH and ePGT121.17.L1 VL) (antibody, V domains shown)
VH: QMQLQESGPGLVKPGETLSLTCSVSGASISSSYWSWLRETPGKGLEWIGYTHHSGDTNYAPSLKSRVTIGLDPSKNQVSLSLTSVTAADTAVYYCARTLHGRRIYGVVAFNEYYTYFYWPTWGKGTQVTVSS
VL: SDISVAPGETVRITCGGESIGSRAVQWYQHRPGQAPRLIIYNNQDRPPGIPERFSGSPDIDFGTTATLTISNVEAGDEATYYCHIWDSRRPTNWELGPGTTLTVL
- IC50, pseudovirus neutralization [1]: > 50000 ng/mL
- IC50, pseudovirus neutralization [2]: 232 ng/mL
- IC50, pseudovirus neutralization [3]: > 50000 ng/mL
- IC50, pseudovirus neutralization [4]: 9 ng/mL
- IC50, pseudovirus neutralization [5]: 12 ng/mL
- IC50, pseudovirus neutralization [6]: 3 ng/mL
- IC50, pseudovirus neutralization [7]: > 50000 ng/mL
- IC50, pseudovirus neutralization [8]: 8 ng/mL
- IC50, pseudovirus neutralization [9]: > 50000 ng/mL
- IC50, pseudovirus neutralization [10]: 5 ng/mL
- IC50, pseudovirus neutralization [11]: 3 ng/mL
- IC50, pseudovirus neutralization [12]: 2 ng/mL
- IC50, pseudovirus neutralization [13]: 6 ng/mL
- IC50, pseudovirus neutralization [14]: 7 ng/mL
- IC50, pseudovirus neutralization [15]: > 50000 ng/mL
- IC50, pseudovirus neutralization [16]: 4 ng/mL
- IC50, pseudovirus neutralization [17]: 2 ng/mL
- IC50, pseudovirus neutralization [18]: 9 ng/mL
- IC50, pseudovirus neutralization [19]: > 50000 ng/mL
- IC50, pseudovirus neutralization [20]: > 50000 ng/mL
- IC50, pseudovirus neutralization [21]: 1430 ng/mL
- IC50, pseudovirus neutralization [22]: 4 ng/mL
- IC50, pseudovirus neutralization [23]: 4 ng/mL
- IC50, pseudovirus neutralization [24]: 4 ng/mL
- IC50, pseudovirus neutralization [25]: 41 ng/mL
- IC50, pseudovirus neutralization [26]: 23 ng/mL
- IC50, pseudovirus neutralization [27]: 3 ng/mL
- IC50, pseudovirus neutralization [28]: 15 ng/mL
- IC50, pseudovirus neutralization [29]: 145 ng/mL
- IC50, pseudovirus neutralization [30]: > 50000 ng/mL
- IC50, pseudovirus neutralization [31]: 80 ng/mL
- IC80, pseudovirus neutralization (Env of SIVmac251.30.SG3): > 50000 ng/mL
- IC80, pseudovirus neutralization [32]: > 50000 ng/mL
- IC80, pseudovirus neutralization [33]: 629 ng/mL
- IC80, pseudovirus neutralization [34]: 26 ng/mL
- IC80, pseudovirus neutralization [35]: 25 ng/mL
- IC80, pseudovirus neutralization [36]: 6 ng/mL
- IC80, pseudovirus neutralization [37]: > 50000 ng/mL
- IC80, pseudovirus neutralization [38]: 6 ng/mL
- IC80, pseudovirus neutralization [39]: > 50000 ng/mL
- IC80, pseudovirus neutralization [40]: 11 ng/mL
- IC80, pseudovirus neutralization [41]: 19 ng/mL
- IC80, pseudovirus neutralization [42]: 17 ng/mL
- IC80, pseudovirus neutralization [43]: 5 ng/mL
- IC80, pseudovirus neutralization [44]: 9 ng/mL
- IC80, pseudovirus neutralization [45]: 549 ng/mL
- IC80, pseudovirus neutralization [46]: 13 ng/mL
- IC80, pseudovirus neutralization [47]: 8 ng/mL
- IC80, pseudovirus neutralization [48]: 780 ng/mL
- IC80, pseudovirus neutralization [49]: > 50000 ng/mL

B3: ePGT121.15.H2.L1 (antibody, V domains shown)
VH: QMQLQESGPGLVKPGETLSLTCSVSGASISSSYWSWLRETPGKGLEWIGYTHHSGDTNYAPSLKSRVHLGLHPSKNQVSLSLTSVTAADTAVYYCARTLHGRRIYGVVAFNEWFTYFYWEVWGKGTQVTVSS
VL: SDISVAPGETVRISCGGESIGSRAVQWYQHRAGQAPKLIIYNNQDRPPGIPERFSGSPDIDFGTTATLTITNVEAGDEATYYCHIWDSRRPTNWVFGGGTTLTVL
- neutralization (Table 6 value) [41]: 0.00162

From US20210292396A1
